Measurements published in patent US20220144956A1 (Xencor, published 2022).

Columns and labels:
[1] = molecular target: T1, human TGFßRII on human PBMCs / T cells (human, UniProt P37173 23-567); assay: flow cytometry, Alexa647-labeled mAb on anti-CD3 activated human PBMCs
T1 construct: whole, on cells; also called cell-surface TGFßRII; TGFßR2

[2] = molecular target: T2, human CD5 on human PBMCs / T cells (human, UniProt P06127 25-495); assay: flow cytometry on unstimulated human PBMCs, anti-human Fc Alexa647 secondary
T2 construct: whole, on cells
T2 sequence (looked up): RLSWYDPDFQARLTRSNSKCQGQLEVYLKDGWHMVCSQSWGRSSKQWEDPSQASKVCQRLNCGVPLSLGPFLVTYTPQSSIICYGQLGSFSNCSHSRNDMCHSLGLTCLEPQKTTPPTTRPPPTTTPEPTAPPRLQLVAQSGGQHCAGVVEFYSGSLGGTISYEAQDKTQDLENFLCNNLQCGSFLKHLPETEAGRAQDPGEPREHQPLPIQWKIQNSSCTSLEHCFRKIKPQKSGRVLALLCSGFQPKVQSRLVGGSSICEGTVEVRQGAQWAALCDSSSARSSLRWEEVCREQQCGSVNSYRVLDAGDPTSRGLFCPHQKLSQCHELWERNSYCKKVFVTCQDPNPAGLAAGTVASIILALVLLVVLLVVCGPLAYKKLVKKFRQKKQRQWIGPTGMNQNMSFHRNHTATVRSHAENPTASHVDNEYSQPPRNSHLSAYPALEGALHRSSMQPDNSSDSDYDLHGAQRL
Description: Next, cell binding of the bispecific antibodies were investigated. Unstimulated PBMCs were incubated with the indicated dose of bispecific antibodies for 1 hour on ice and washed. Next, the PBMCs were stained with goat anti-human Fc secondary antibody conjugated to Alexa647 (to assess binding of the bispecific antibodies) and antibodies against cell surface antigens (to define T cell populations) for 40 minutes on ice. Finally, the cells were analyzed by flow cytometry.

[3] = molecular target: T3, His-tagged human CD5 antigen (human, UniProt P06127 25-372, limits assumed); assay: method not stated; the filing prints 'TGFßRII' but the sentence is about restoring the CD5 affinity of Cd5-B VH variants, so the target is taken as CD5
T3 construct: not shown: His tag
T3 sequence (looked up): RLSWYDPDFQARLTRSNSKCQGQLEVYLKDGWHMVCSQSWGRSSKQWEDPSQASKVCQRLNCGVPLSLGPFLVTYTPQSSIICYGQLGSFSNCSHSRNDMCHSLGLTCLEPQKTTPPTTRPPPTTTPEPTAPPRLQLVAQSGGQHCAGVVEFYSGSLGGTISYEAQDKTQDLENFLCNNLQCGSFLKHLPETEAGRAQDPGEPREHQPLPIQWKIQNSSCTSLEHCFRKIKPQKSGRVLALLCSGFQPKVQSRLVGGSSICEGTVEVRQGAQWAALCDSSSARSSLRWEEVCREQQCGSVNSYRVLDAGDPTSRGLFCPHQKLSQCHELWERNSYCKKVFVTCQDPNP

[4] = molecular target: T4, His-tagged cynomolgus CD5 antigen (cynomolgus monkey); assay: as above
T4 construct: also called cyno CD5

[5] = molecular target: T3, His-tagged human CD5 antigen; assay: worded comparison of affinity (Octet KD values in FIG. 68)
Description: In particular, His-tagged human and cynomolgus CD5 antigen were captured using HIS1K sensors and dipped into multiple concentrations of the bispecific antibodies.

T1 sequence (P37173 23-567): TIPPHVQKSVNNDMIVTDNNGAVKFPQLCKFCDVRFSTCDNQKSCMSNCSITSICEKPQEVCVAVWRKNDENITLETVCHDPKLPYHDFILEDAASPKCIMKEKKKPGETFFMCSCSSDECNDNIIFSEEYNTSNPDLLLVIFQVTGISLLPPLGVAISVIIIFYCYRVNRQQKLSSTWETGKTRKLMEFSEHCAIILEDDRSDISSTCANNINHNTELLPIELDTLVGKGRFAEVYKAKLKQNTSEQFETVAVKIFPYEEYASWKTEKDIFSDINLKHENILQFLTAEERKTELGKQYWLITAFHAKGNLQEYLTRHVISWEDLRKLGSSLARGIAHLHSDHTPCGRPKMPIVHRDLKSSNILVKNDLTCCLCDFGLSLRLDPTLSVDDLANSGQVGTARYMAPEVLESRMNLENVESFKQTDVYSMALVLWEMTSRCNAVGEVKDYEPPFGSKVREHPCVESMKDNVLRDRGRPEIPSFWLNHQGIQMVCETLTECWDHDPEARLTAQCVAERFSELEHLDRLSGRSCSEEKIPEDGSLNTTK

B1: XENP28297 (antibody, human IgG1, kappa, V domains shown)
VH: QLQVQESGPGLVKPSETLSLTCTVSGGSISNSYFSWGWIRQPPGKGLEWIGSFYYGEKTYYNPSLKSRATISIDTSKSQFSLKLSSVTAADTAVYYCPRGPTVIRGVIDSWGQGTLVTVSS
VL: EIVLTQSPATLSLSPGERATLSCRASQSVRSYLAWYQQKPGQAPRLLIYDASNRATGIPARFSGSGSGTDFTLTISSLEPEDFAVYYCQQRSNWPPTFGQGTKVEIKR
modifications: The antibody was labeled with Alexa647 in the cell-binding assay. The dye position is not stated.
notes: also called bivalent anti-TGFßRII mAb based on TBRII-A; copies: 2 + 2
- binding result [1]: binds

B2: XENP35399 (bispecific antibody, human IgG1, kappa)
heavy: EVQLVESGGGVVQPGRSLRLSCTFSGFSLSTSGMGVGWIRQAPGKGLEWVAHIWWDDDVYYNPSLKSRLTITKDASTDTVYMELSSLRSEDTAVYYCVRRRATGTGFDYWGQGTLVTVSSASTKGPSVFPLAPSSKSTSGGTAALGCLVKDYFPEPVTVSWNSGALTSGVHTFPAVLQSSGLYSLSSVVTVPSSSLGTQTYICNVNHKPSDTKVDKKVEPKSCDKTHTCPPCPAPPVAGPSVFLFPPKPKDTLMISRTPEVTCVVVDVKHEDPEVKFNWYVDGVEVHNAKTKPREEEYNSTYRVVSVLTVLHQDWLNGKEYKCKVSNKALPAPIEKTISKAKGQPREPQVYTLPPSREEMTKNQVSLTCDVSGFYPSDIAVEWESDGQPENNYKTTPPVLDSDGSFFLYSKLTVDKSRWEQGDVFSCSVMHEALHNHYTQKSLSLSPGK
scFv-Fc: QLQVQESGPGLVKPSETLSLTCTVSGGSISNSYFSWGWIRQPPGKGLEWIGSFYYGEKTYYNPSLKSRATISIDTSKSQFSLKLSSVTAADTAVYYCPRGPTVIRGVIDSWGQGTLVTVSSGKPGSGKPGSGKPGSGKPGSEIVLTQSPATLSLSPGERATLSCRASQSVRSYLAWYQQKPGQAPRLLIYDASNRATGIPARFSGSGSGTDFTLTISSLEPEDFAVYYCQQRSNWPPTFGQGTKVEIKEPKSSDKTHTCPPCPAPPVAGPSVFLFPPKPKDTLMISRTPEVTCVVVDVKHEDPEVKFNWYVDGVEVHNAKTKPREEQYNSTYRVVSVLTVLHQDWLNGKEYKCKVSNKALPAPIEKTISKAKGQPREPQVYTLPPSREQMTKNQVKLTCLVKGFYPSDIAVEWESNGQPENNYKTTPPVLDSDGSFFLYSKLTVDKSRWQQGNVFSCSVMHEALHNHYTQKSLSLSPGK
light: NIVMTQSPSSLSASVGDRVTITCQASQDVGTAVAWYQQKPDQSPKLLIYWTSTRHTGVPDRFTGSGSGTDFTLTISSLQPEDIATYFCHQYNSYNTFGSGTKLEIKRTVAAPSVFIFPPSDEQLKSGTASVVCLLNNFYPREAKVQWKVDNALQSGNSQESVTEQDSKDSTYSLSSTLTLSKADYEKHKVYACEVTHQGLSSPVTKSFNRGEC
notes: also called prototype anti-TGFßRII×anti-CD5 bsAb having CD5-targeting arm based on clone 5D7; αTGFßRII×αCD5
- binding result [2]: binds

B3: XENP37388 (bispecific antibody, human IgG1, kappa)
heavy: QVTLKESGAELVRPGASVKLSCKASGYSFTSYWMNWVKQRPGQGLEWIGMIHPSDSETRLNQKFKDKATLTVDKSSSTAYMQLSSPTSEDSAVYYCARWGDHDDAMDFWGQGTMVTVSSASTKGPSVFPLAPSSKSTSGGTAALGCLVKDYFPEPVTVSWNSGALTSGVHTFPAVLQSSGLYSLSSVVTVPSSSLGTQTYICNVNHKPSDTKVDKKVEPKSCDKTHTCPPCPAPPVAGPSVFLFPPKPKDTLMISRTPEVTCVVVDVKHEDPEVKFNWYVDGVEVHNAKTKPREEEYNSTYRVVSVLTVLHQDWLNGKEYKCKVSNKALPAPIEKTISKAKGQPREPQVYTLPPSREEMTKNQVSLTCDVSGFYPSDIAVEWESDGQPENNYKTTPPVLDSDGSFFLYSKLTVDKSRWEQGDVFSCSVMHEALHNHYTQKSLSLSPGK
scFv-Fc: QLQVQESGPGLVKPSETLSLTCTVSGGSISNSYFSWGWIRQPPGKGLEWIGSFYYGEKTYYNPSLKSRATISIDTSKSQFSLKLSSVTAADTAVYYCPRGPTVIRGVIDSWGQGTLVTVSSGKPGSGKPGSGKPGSGKPGSEIVLTQSPATLSLSPGERATLSCRASQSVRSYLAWYQQKPGQAPRLLIYDASNRATGIPARFSGSGSGTDFTLTISSLEPEDFAVYYCQQRSNWPPTFGQGTKVEIKEPKSSDKTHTCPPCPAPPVAGPSVFLFPPKPKDTLMISRTPEVTCVVVDVKHEDPEVKFNWYVDGVEVHNAKTKPREEQYNSTYRVVSVLTVLHQDWLNGKEYKCKVSNKALPAPIEKTISKAKGQPREPQVYTLPPSREQMTKNQVKLTCLVKGFYPSDIAVEWESNGQPENNYKTTPPVLDSDGSFFLYSKLTVDKSRWQQGNVFSCSVMHEALHNHYTQKSLSLSPGK
light: DIVLTQSPASLSASVGESVTITCRPSENIYGYFAWYQQRQGKSPQLLVYNAKTLAEGVPSRFSGSGSGTHFSLKINSLQPEDFGTYYCQHHYGTPFTFGPGTKVDIKRTVAAPSVFIFPPSDEQLKSGTASVVCLLNNFYPREAKVQWKVDNALQSGNSQESVTEQDSKDSTYSLSSTLTLSKADYEKHKVYACEVTHQGLSSPVTKSFNRGEC
notes: also called anti-TGFßRII×anti-CD5 bsAb based on Cd5-B (by the order of the sentence)
- binding result [2]: binds

B4: XENP33038 (antibody, human IgG1, kappa, V domains shown)
VH: EVQLVESGGGLVKPGGSLRLSCAASGFTFSSFSMNWVRQAPGKGLEWVSSISSSSSYIYYTDSVKGRFTISRDNAKNSLYLQMNSLRAEDTAVYYCARGYWGFDYWGQGTLVTVSS
VL: DIQMTQSPSSLSASVGDRVTITCRASQGIRNDLGWYQQKPGKAPKRLIYAASSLQSGVPSRFSGSASGTEFTLTISSLQPEDFATYYCLQHNSNPLTFGGGTKVEIKR
modifications: Antibody labeled with Alexa647 in the assay; attachment sites not stated.
notes: labeled with Alexa647; also called illustrative anti-TGFßRII mAb XENP33038; copies: 2 + 2
- binding result [1]: binds

B5: Cd5-B H2L1 (further humanized variant of Cd5-B) (antibody, V domains shown)
VH: QVQLVQSGAEVKKPGASVKVSCKASGYSFTSYWMNWVRQAPGQGLEWMGMIHPSDSETRYNQKFQGRVTMTVDKSTSTAYMELSSLRSEDTAVYYCARWGDHDDAMDFWGQGTMVTVSS
VL: DIVLTQSPSSLSASVGDRVTITCRPSENIYGYFAWYQQKPGKSPKLLVYNAKTLAEGVPSRFSGSGSGTDFTLTISSLQPEDFATYYCQHHYGTPFTFGPGTKVEIK
- Kd [3]: 2 nM
- Kd [4]: 0.3 nM

B6: Cd5-B H1.23_L1 (further humanized variant of Cd5-B) (antibody, V domains shown)
VH: EVQLVQSGAEVKKPGESLKISCKASGYSFTSYWMNWVRQMPGKGLEWMGMIYPSDSETRYNQSFQGQVTISVDKSISTAYLQWSSLKASDTAMYYCARWGDHDDAMDFWGQGTMVTVSS
VL: DIVLTQSPSSLSASVGDRVTITCRPSENIYGYFAWYQQKPGKSPKLLVYNAKTLAEGVPSRFSGSGSGTDFTLTISSLQPEDFATYYCQHHYGTPFTFGPGTKVEIK
- Kd [3]: 4 nM
- Kd [4]: 3 nM

B7: Cd5-B H1.36_L1 (further humanized variant of Cd5-B) (antibody, V domains shown)
VH: EVQLVQSGAEVKKPGESLKISCKASGYSFTSYWMNWVRQMPGKGLEWMGMIHPSDSETRYNQKFQGQVTISVDKSISTAYLQWSSLKASDTAMYYCARWGDHDDAMDFWGQGTMVTVSS
VL: DIVLTQSPSSLSASVGDRVTITCRPSENIYGYFAWYQQKPGKSPKLLVYNAKTLAEGVPSRFSGSGSGTDFTLTISSLQPEDFATYYCQHHYGTPFTFGPGTKVEIK
- Kd [3]: 4 nM
- Kd [4]: 2 nM

B8: XENP37385 (bispecific antibody, human IgG1, kappa)
heavy: EVQLKESGAELVRPGGSVKISCKGSGYTFTNFAIHWVKQSHIKTLEWIGLISTSSGDVSYNQKFKDKATMTVDKSSSTAYMELARLTSEDSAIYYCARHYGANNYFDYWGQGTLVTVSSASTKGPSVFPLAPSSKSTSGGTAALGCLVKDYFPEPVTVSWNSGALTSGVHTFPAVLQSSGLYSLSSVVTVPSSSLGTQTYICNVNHKPSDTKVDKKVEPKSCDKTHTCPPCPAPPVAGPSVFLFPPKPKDTLMISRTPEVTCVVVDVKHEDPEVKFNWYVDGVEVHNAKTKPREEEYNSTYRVVSVLTVLHQDWLNGKEYKCKVSNKALPAPIEKTISKAKGQPREPQVYTLPPSREEMTKNQVSLTCDVSGFYPSDIAVEWESDGQPENNYKTTPPVLDSDGSFFLYSKLTVDKSRWEQGDVFSCSVMHEALHNHYTQKSLSLSPGK
scFv-Fc: QLQVQESGPGLVKPSETLSLTCTVSGGSISNSYFSWGWIRQPPGKGLEWIGSFYYGEKTYYNPSLKSRATISIDTSKSQFSLKLSSVTAADTAVYYCPRGPTVIRGVIDSWGQGTLVTVSSGKPGSGKPGSGKPGSGKPGSEIVLTQSPATLSLSPGERATLSCRASQSVRSYLAWYQQKPGQAPRLLIYDASNRATGIPARFSGSGSGTDFTLTISSLEPEDFAVYYCQQRSNWPPTFGQGTKVEIKEPKSSDKTHTCPPCPAPPVAGPSVFLFPPKPKDTLMISRTPEVTCVVVDVKHEDPEVKFNWYVDGVEVHNAKTKPREEQYNSTYRVVSVLTVLHQDWLNGKEYKCKVSNKALPAPIEKTISKAKGQPREPQVYTLPPSREQMTKNQVKLTCLVKGFYPSDIAVEWESNGQPENNYKTTPPVLDSDGSFFLYSKLTVDKSRWQQGNVFSCSVMHEALHNHYTQKSLSLSPGK
light: EIVLTQSPTIMSASPGEQVTMTCRTNSSVSSSYLHWYQQKSGASPKLWIYGTSNLASGVPTRFSGSGSGTSYSLTISSVEAGDAATYFCQQYSGYPLTFGGGTKVEIKRTVAAPSVFIFPPSDEQLKSGTASVVCLLNNFYPREAKVQWKVDNALQSGNSQESVTEQDSKDSTYSLSSTLTLSKADYEKHKVYACEVTHQGLSSPVTKSFNRGEC
- binding result [5]: binds
